# Reference: patent WO2017055393A1 (dated 2017)
# B1: TIM3 TCB molecule: anti-Tim-3 / anti-CD3 T cell bispecific (TCB) molecule, "2+1 IgG CrossFab, inverted" with charge modifications (VH/VL exchange in CD3 … (bispecific antibody)
# heavy 1: QVTLKESGPGILQPSQTLRLTCSFSGFSLSTSGMSVGWIRQPSGKGLEWLAHIWLNDDVFFNPALKSRLTISKDTSNNQVFLQIASVVTADTATYYCVRANGYLYALDYWGQGTSVTVSSASTKGPSVFPLAPSSKSTSGGTAALGCLVEDYFPEPVTVSWNSGALTSGVHTFPAVLQSSGLYSLSSVVTVPSSSLGTQTYICNVNHKPSNTKVDEKVEPKSCDKTHTCPPCPAPEAAGGPSVFLFPPKPKDTLMISRTPEVTCVVVDVSHEDPEVKFNWYVDGVEVHNAKTKPREEQYNSTYRVVSVLTVLHQDWLNGKEYKCKVSNKALGAPIEKTISKAKGQPREPQVCTLPPSRDELTKNQVSLSCAVKGFYPSDIAVEWESNGQPENNYKTTPPVLDSDGSFFLVSKLTVDKSRWQQGNVFSCSVMHEALHNHYTQKSLSLSP
# heavy 2: not shown
# light 1: EVQLLESGGGLVQPGGSLRLSCAASGFTFSTYAMNWVRQAPGKGLEWVSRIRSKYNNYATYYADSVKGRFTISRDDSKNTLYLQMNSLRAEDTAVYYCVRHGNFGNSYVSWFAYWGQGTLVTVSSASVAAPSVFIFPPSDEQLKSGTASVVCLLNNFYPREAKVQWKVDNALQSGNSQESVTEQDSKDSTYSLSSTLTLSKADYEKHKVYACEVTHQGLSSPVTKSFNRGEC
# light 2: QIVLTQSPAIMSASPGQKVTITCSASSSVNYTQWYQQKLGSSPKLWIYDAFKLAPGVPARFSGSGTGTSYSLTISSMEAEDAASYFCHQWSSYPWTFGGGTKLEIKRTVAAPSVFIFPPSDRKLKSGTASVVCLLNNFYPREAKVQWKVDNALQSGNSQESVTEQDSKDSTYSLSSTLTLSKADYEKHKVYACEVTHQGLSSPVTKSFNRGEC
# Target: T1, human Tim-3 (T cell Immunoglobulin- and Mucin domain-containing molecule 3) (human, UniProt Q8TDQ0 22-301)
# T1 sequence (looked up): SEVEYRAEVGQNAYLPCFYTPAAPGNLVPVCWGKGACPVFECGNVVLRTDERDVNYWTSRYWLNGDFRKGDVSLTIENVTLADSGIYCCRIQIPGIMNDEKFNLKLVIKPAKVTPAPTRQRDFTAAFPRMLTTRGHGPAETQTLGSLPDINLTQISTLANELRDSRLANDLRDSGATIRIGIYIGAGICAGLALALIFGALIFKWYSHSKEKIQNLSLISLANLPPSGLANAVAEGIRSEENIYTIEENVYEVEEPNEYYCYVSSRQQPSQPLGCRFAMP
# Test: cell-based or functional assay
binder,measurement,value
B1,"Cytotoxic activity TCB (LDH), IC50 pM, CMK cells (AML)",300 pM
same,"Cytotoxic activity TCB (LDH), IC50 pM, EOL-1* cells (AML; 24h pre-treated with 10 ng/ml PMA)",300 pM
same,"Cytotoxic activity TCB (LDH), IC50 pM, KG-1 cells (AML)",1000 pM
same,"Cytotoxic activity TCB (LDH), IC50 pM, Karpas-299 cells (NHTCL)",500 pM
same,"Cytotoxic activity TCB (LDH), IC50 pM, Kasumi-1 cells (AML)",3000 pM
same,"Cytotoxic activity TCB (LDH), IC50 pM, Pfeiffer cells (NHBCL)",10 pM
same,"Cytotoxic activity TCB (LDH), IC50 pM, RPMI-8226 cells (MM)",100 pM
same,"Cytotoxic activity TCB (LDH), IC50 pM, SR cells (LCIBL)",100 pM
same,"EC50 of tumor cell lysis, 24 h LDH release, CHO K1 cells stably expressing human TIM-3, thawed expanded T cells, E:T 1:1",0.003 nM
same,"EC50 of tumor cell lysis, 24 h LDH release, Pfeiffer cells, thawed expanded T cells, E:T 1:1",0.06 nM
